Source: publication PMC8962522 (2022)

Biological target: CD44v3 (Homo sapiens, UniProt P16070)
Assay: MST

Sequence of CD44v3 (P16070 21-649): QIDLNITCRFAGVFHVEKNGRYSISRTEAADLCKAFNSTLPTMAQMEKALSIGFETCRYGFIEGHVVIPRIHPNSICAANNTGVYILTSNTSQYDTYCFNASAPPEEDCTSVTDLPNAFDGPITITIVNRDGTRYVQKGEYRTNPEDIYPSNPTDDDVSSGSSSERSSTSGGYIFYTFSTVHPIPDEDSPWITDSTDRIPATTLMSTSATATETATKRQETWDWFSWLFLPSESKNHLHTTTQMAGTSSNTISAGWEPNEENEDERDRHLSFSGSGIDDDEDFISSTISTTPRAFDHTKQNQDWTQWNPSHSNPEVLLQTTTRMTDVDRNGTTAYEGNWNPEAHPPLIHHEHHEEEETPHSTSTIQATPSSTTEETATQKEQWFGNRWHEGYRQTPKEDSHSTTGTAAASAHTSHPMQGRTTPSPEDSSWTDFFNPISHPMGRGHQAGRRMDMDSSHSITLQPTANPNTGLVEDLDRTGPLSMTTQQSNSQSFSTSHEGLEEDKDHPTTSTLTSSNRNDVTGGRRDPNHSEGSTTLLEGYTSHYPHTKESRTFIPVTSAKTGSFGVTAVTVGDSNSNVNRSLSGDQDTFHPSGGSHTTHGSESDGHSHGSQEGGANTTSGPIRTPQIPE

B1: TrkA (protein)
chain: AAPCPDACCPHGSSGLRCTRDGALDSLHHLPGAENLTELYIENQQHLQHLELRDLRGLGELRNLTIVKSGLRFVAPDAFHFTPRLSRLNLSFNALESLSWKTVQGLSLQELVLSGNPLHCSCALRWLQRWEEEGLGGVPEQKLQCHGQGPLAHMPNASCGVPTLKVQVPNASVDVGDDVLLRCQVEGRGLEQAGWILTELEQSATVMKSGGLPSLGLTLANVTSDLNRKNVTCWAENDVGRAEVSVQVNVSFPASVQLHTAVEMHHWCIPFSVDGQPAPSLRWLFNGSVLNETSFIFTEFLEPAANETVRHGCLRLNQPTHVNNGNYTLLAANPFGQASASIMAAFMDNPFEFNPEDPIPVSFSPVDTNSTSGDPVEKKDETPFGVSVAVG
modifications: NGF
Which Kd does the source give for B1 here?
The Kd was 9.47 nM.
